Experimental data: IntAct's records for PubMed 19763089

B1: NF-kappa-B essential modulator (Mus musculus), O88522 (parent)
chain: MNKHPWKNQLSEMVQPSGGPAEDQDMLGEESSLGKPAMLHLPSEQGTPETLQRCLEENQELRDAIRQSNQMLRERCEELLHFQVSQREEKEFLMCKFQEARKLVERLSLEKLDLRSQREQALKELEQLKKCQQQMAEDKASVKAQVTSLLGELQESQSRLEAATKDRQALEGRIRAVSEQVRQLESEREVLQQQHSVQVDQLRMQNQSVEAALRMERQAASEEKRKLAQLQAAYHQLFQDYDSHIKSSKGMQLEDLRQQLQQAEEALVAKQELIDKLKEEAEQHKIVMETVPVLKAQADIYKADFQAERHAREKLVEKKEYLQEQLEQLQREFNKLKVGCHESARIEDMRKRHVETPQPPLLPAPAHHSFHLALSNQRRSPPEEPPDFCCPKCQYQAPDMDTLQIHVMECIE

Assays:
[1] = variants of: B1; settings: with ubc_human UBC
[2] = variants of: B1; settings: with ubc_human UBC; remark: listed apart in the source

Variant | effect of a mutation on the interaction [1] | effect of a mutation on the interaction [2]
MNKHPWKNQLSEMVQPSGGPAEDQDMLGEESSLGKPAMLHLPSEQGTPETLQRCLEENQELRDAIRQSNQMLRERCEELLHFQVSQREEKEFLMCKFQEARKLVERLSLEKLDLRSQREQALKELEQLKKCQQQMAEDKASVKAQVTSLLGELQESQSRLEAATKDRQALEGRIRAVSEQVRQLESEREVLQQQHSVQVDQLRMQNQSVEAALRMERQAASEEKRKLAQLQAAYHQLFQDYDSHIKSSKGMQLEDLRQQLQQAEEALVAKQELIDKLKEEAEQHKIVMETVPVLKAQADISKADFQAERHAREKLVEKKEYLQEQLEQLQREFNKLKVGCHESARIEDMRKRHVETPQPPLLPAPAHHSFHLALSNQRRSPPEEPPDFCCPKCQYQAPDMDTLQIHVMECIE [Y301S] | disrupting interaction | decreasing interaction
MNKHPWKNQLSEMVQPSGGPAEDQDMLGEESSLGKPAMLHLPSEQGTPETLQRCLEENQELRDAIRQSNQMLRERCEELLHFQVSQREEKEFLMCKFQEARKLVERLSLEKLDLRSQREQALKELEQLKKCQQQMAEDKASVKAQVTSLLGELQESQSRLEAATKDRQALEGRIRAVSEQVRQLESEREVLQQQHSVQVDQLRMQNQSVEAALRMERQAASEEKRKLAQLQAAYHQLFQDYDSHIKSSKGMQLEDLRQQLQQAEEALVAKQELIDKLKEEAEQHKIVMETVPVLKAQADIYKANFQAERHAREKLVEKKEYLQEQLEQLQREFNKLKVGCHESARIEDMRKRHVETPQPPLLPAPAHHSFHLALSNQRRSPPEEPPDFCCPKCQYQAPDMDTLQIHVMECIE [D304N] | disrupting interaction | decreasing interaction
